From patent US20200297818A1 (ZEALAND PHARMA A S, published 2020) come the findings set out here.

T1: human GLP-2 receptor (hGLP2-R) (human, UniProt O95838 1-553)
T1 sequence (looked up): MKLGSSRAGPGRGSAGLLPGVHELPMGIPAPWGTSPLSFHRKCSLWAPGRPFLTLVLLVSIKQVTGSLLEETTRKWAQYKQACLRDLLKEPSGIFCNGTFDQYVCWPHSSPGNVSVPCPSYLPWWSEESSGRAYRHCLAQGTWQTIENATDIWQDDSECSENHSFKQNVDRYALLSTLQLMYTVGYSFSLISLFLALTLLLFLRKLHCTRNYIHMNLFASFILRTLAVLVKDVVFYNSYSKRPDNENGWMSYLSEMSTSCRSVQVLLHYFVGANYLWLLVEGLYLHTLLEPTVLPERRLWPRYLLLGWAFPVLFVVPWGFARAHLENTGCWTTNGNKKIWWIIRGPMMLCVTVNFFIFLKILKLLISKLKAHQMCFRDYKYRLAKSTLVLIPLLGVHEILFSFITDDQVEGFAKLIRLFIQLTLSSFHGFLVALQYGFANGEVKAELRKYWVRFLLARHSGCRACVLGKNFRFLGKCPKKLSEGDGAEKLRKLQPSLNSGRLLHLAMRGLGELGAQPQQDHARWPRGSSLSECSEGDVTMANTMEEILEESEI

B1: Compound 3 (peptide)
peptide: HXEGTFTSELATILDXEAARDFIAWLIEHKITD
HELM: PEPTIDE1{H.[Aib].E.G.T.F.T.S.E.L.A.T.I.L.D.K.E.A.A.R.D.F.I.A.W.L.I.E.H.K.I.T.D}|PEPTIDE2{[O=C(O)CCCCCCCCCCCCCCCCC(=O)[*:2]].[gGlu]}$PEPTIDE1,PEPTIDE2,16:R3-2:R2$$$V2.0
SMILES: CC[C@H](C)[C@H](NC(=O)[C@H](Cc1ccccc1)NC(=O)[C@H](CC(=O)O)NC(=O)[C@H](CCCNC(=N)N)NC(=O)[C@H](C)NC(=O)[C@H](C)NC(=O)[C@H](CCC(=O)O)NC(=O)[C@H](CCCCNC(=O)CC[C@H](NC(=O)CCCCCCCCCCCCCCCCC(=O)O)C(=O)O)NC(=O)[C@H](CC(=O)O)NC(=O)[C@H](CC(C)C)NC(=O)[C@@H](NC(=O)[C@@H](NC(=O)[C@H](C)NC(=O)[C@H](CC(C)C)NC(=O)[C@H](CCC(=O)O)NC(=O)[C@H](CO)NC(=O)[C@@H](NC(=O)[C@H](Cc1ccccc1)NC(=O)[C@@H](NC(=O)CNC(=O)[C@H](CCC(=O)O)NC(=O)C(C)(C)NC(=O)[C@@H](N)Cc1c[nH]cn1)[C@@H](C)O)[C@@H](C)O)[C@@H](C)O)[C@@H](C)CC)C(=O)N[C@@H](C)C(=O)N[C@@H](Cc1c[nH]c2ccccc12)C(=O)N[C@@H](CC(C)C)C(=O)N[C@H](C(=O)N[C@@H](CCC(=O)O)C(=O)N[C@@H](Cc1c[nH]cn1)C(=O)N[C@@H](CCCCN)C(=O)N[C@H](C(=O)N[C@H](C(=O)N[C@@H](CC(=O)O)C(=O)O)[C@@H](C)O)[C@@H](C)CC)[C@@H](C)CC
B2: Compound 5 (peptide)
peptide: B1 peptide with T5S, E17K
HELM: PEPTIDE1{H.[Aib].E.G.S.F.T.S.E.L.A.T.I.L.D.K.K.A.A.R.D.F.I.A.W.L.I.E.H.K.I.T.D}|PEPTIDE2{[O=C(O)CCCCCCCCCCCCCCCCC(=O)[*:2]].[gGlu]}$PEPTIDE1,PEPTIDE2,16:R3-2:R2$$$V2.0
SMILES: CC[C@H](C)[C@H](NC(=O)[C@H](Cc1ccccc1)NC(=O)[C@H](CC(=O)O)NC(=O)[C@H](CCCNC(=N)N)NC(=O)[C@H](C)NC(=O)[C@H](C)NC(=O)[C@H](CCCCN)NC(=O)[C@H](CCCCNC(=O)CC[C@H](NC(=O)CCCCCCCCCCCCCCCCC(=O)O)C(=O)O)NC(=O)[C@H](CC(=O)O)NC(=O)[C@H](CC(C)C)NC(=O)[C@@H](NC(=O)[C@@H](NC(=O)[C@H](C)NC(=O)[C@H](CC(C)C)NC(=O)[C@H](CCC(=O)O)NC(=O)[C@H](CO)NC(=O)[C@@H](NC(=O)[C@H](Cc1ccccc1)NC(=O)[C@H](CO)NC(=O)CNC(=O)[C@H](CCC(=O)O)NC(=O)C(C)(C)NC(=O)[C@@H](N)Cc1c[nH]cn1)[C@@H](C)O)[C@@H](C)O)[C@@H](C)CC)C(=O)N[C@@H](C)C(=O)N[C@@H](Cc1c[nH]c2ccccc12)C(=O)N[C@@H](CC(C)C)C(=O)N[C@H](C(=O)N[C@@H](CCC(=O)O)C(=O)N[C@@H](Cc1c[nH]cn1)C(=O)N[C@@H](CCCCN)C(=O)N[C@H](C(=O)N[C@H](C(=O)N[C@@H](CC(=O)O)C(=O)O)[C@@H](C)O)[C@@H](C)CC)[C@@H](C)CC
B3: Compound 7 (peptide)
peptide: B1 peptide with T7S, X16G, E17X
HELM: PEPTIDE1{H.[Aib].E.G.T.F.S.S.E.L.A.T.I.L.D.G.K.A.A.R.D.F.I.A.W.L.I.E.H.K.I.T.D}|PEPTIDE2{[O=C(O)CCCCCCCCCCCCCCCCC(=O)[*:2]].[gGlu]}$PEPTIDE1,PEPTIDE2,17:R3-2:R2$$$V2.0
SMILES: CC[C@H](C)[C@H](NC(=O)[C@H](Cc1ccccc1)NC(=O)[C@H](CC(=O)O)NC(=O)[C@H](CCCNC(=N)N)NC(=O)[C@H](C)NC(=O)[C@H](C)NC(=O)[C@H](CCCCNC(=O)CC[C@H](NC(=O)CCCCCCCCCCCCCCCCC(=O)O)C(=O)O)NC(=O)CNC(=O)[C@H](CC(=O)O)NC(=O)[C@H](CC(C)C)NC(=O)[C@@H](NC(=O)[C@@H](NC(=O)[C@H](C)NC(=O)[C@H](CC(C)C)NC(=O)[C@H](CCC(=O)O)NC(=O)[C@H](CO)NC(=O)[C@H](CO)NC(=O)[C@H](Cc1ccccc1)NC(=O)[C@@H](NC(=O)CNC(=O)[C@H](CCC(=O)O)NC(=O)C(C)(C)NC(=O)[C@@H](N)Cc1c[nH]cn1)[C@@H](C)O)[C@@H](C)O)[C@@H](C)CC)C(=O)N[C@@H](C)C(=O)N[C@@H](Cc1c[nH]c2ccccc12)C(=O)N[C@@H](CC(C)C)C(=O)N[C@H](C(=O)N[C@@H](CCC(=O)O)C(=O)N[C@@H](Cc1c[nH]cn1)C(=O)N[C@@H](CCCCN)C(=O)N[C@H](C(=O)N[C@H](C(=O)N[C@@H](CC(=O)O)C(=O)O)[C@@H](C)O)[C@@H](C)CC)[C@@H](C)CC

Where a chain is given by its changes, count along the chain named. *1 amine or outer side, *2 acyl side, *3 side chain or, on linkers, in order; H or OH if unused. Where no end group is shown, it is not given here. Side-chain parts run from the residue outwards. [ ]: non-standard residue; d: D form. The star is where a group is joined. C20 diacid = O=C(O)CCCCCCCCCCCCCCCCCCC(=O)*; C18 diacid = O=C(O)CCCCCCCCCCCCCCCCC(=O)*; γGlu = O=C(O)[C@H](CCC(=O)[*:2])N[*:1]; AEEA = NCCOCCOCC(=O)O; Aib = CC(C)(N)C(=O)O

One assay deals with T1, human GLP-2 receptor (hGLP2-R). Kind of assay: cell-based or functional assay.
Turning to H-H[Aib]EGTFTSELATILDEQAAK([AEEA-AEEA-Lys-Glu-Lys-γGlu-C20 diacid])DFIAWLIEHKITD-OH [Compound 67], the “EC50 GLP-2 (nM); cAMP response” value turned out to be 0.22 nM.

As for H-H[Aib]EGSFTSELATILDEQAAK([AEEA-AEEA-Lys-Glu-Lys-γGlu-C20 diacid])DFIAWLIEHKITD-OH [Compound 66], the “EC50 GLP-2 (nM); cAMP response” value worked out at 0.18 nM.

H-H[Aib]EGSFTSELATILDAKAAK([AEEA-Lys-Glu-Lys-γGlu-C20 diacid])DFIAWLIEHKITD-OH [Compound 68]: the “EC50 GLP-2 (nM); cAMP response” value stood at 0.1 nM.

Consider H-H[Aib]EGSFTSELATILDEQAAK([AEEA-Lys-Glu-Lys-γGlu-C20 diacid])DFIAWLIEHKITD-OH [Compound 64], for which the “EC50 GLP-2 (nM); cAMP response” value stood at 0.2 nM.

Turning to H[Aib]EGTFSSELATILDK([γGlu-C18 diacid])KAARDFIAWLIEHKITD-OH [Compound 4], the “EC50 GLP-2 (nM); cAMP response” value came to 0.087 nM.

Regarding B1, the “EC50 GLP-2 (nM); cAMP response” value was 0.33 nM.

In the case of B2, the “EC50 GLP-2 (nM); cAMP response” value was 0.063 nM.

On to B3, for which the “EC50 GLP-2 (nM); cAMP response” value worked out at 0.019 nM.

As to H-H[Aib]EGSFTSELATILDAK([AEEA-AEEA-Lys-Glu-Lys-γGlu-C20 diacid])AARDFIAWLIEHKITD-OH [Compound 63], the “EC50 GLP-2 (nM); cAMP response” value turned out to be 0.17 nM.

H[Aib]EGTFTSELATILDK([γGlu-C18 diacid])KAARDFIAWLIEHKITD-OH [Compound 6]: the “EC50 GLP-2 (nM); cAMP response” value is 0.12 nM.

As to H-H[Aib]EGTFTSELATILDEQAAK([AEEA-Lys-Glu-Lys-γGlu-C20 diacid])DFIAWLIEHKITD-OH [Compound 65], the “EC50 GLP-2 (nM); cAMP response” value stood at 0.35 nM.

A further assay deals with human glucagon-like peptide 1 receptor (GLP-1 R) (human, UniProt P43220 24-463). The assay is described as follows: cell-based or functional assay.
For the molecule H-H[Aib]EGTFTSELATILDEQAAK([AEEA-AEEA-Lys-Glu-Lys-γGlu-C20 diacid])DFIAWLIEHKITD-OH [Compound 67], the “EC50 GLP-1 (nM); cAMP response” value is 0.16 nM.

As for H-H[Aib]EGSFTSELATILDEQAAK([AEEA-AEEA-Lys-Glu-Lys-γGlu-C20 diacid])DFIAWLIEHKITD-OH [Compound 66], the “EC50 GLP-1 (nM); cAMP response” value is 0.65 nM.

Regarding H-H[Aib]EGSFTSELATILDAKAAK([AEEA-Lys-Glu-Lys-γGlu-C20 diacid])DFIAWLIEHKITD-OH [Compound 68], the “EC50 GLP-1 (nM); cAMP response” value was determined as 0.084 nM.

As to H-H[Aib]EGSFTSELATILDEQAAK([AEEA-Lys-Glu-Lys-γGlu-C20 diacid])DFIAWLIEHKITD-OH [Compound 64], the “EC50 GLP-1 (nM); cAMP response” value was 0.49 nM.

As for H[Aib]EGTFSSELATILDK([γGlu-C18 diacid])KAARDFIAWLIEHKITD-OH [Compound 4], the “EC50 GLP-1 (nM); cAMP response” value was 0.66 nM.

Turning to B1, the “EC50 GLP-1 (nM); cAMP response” value turned out to be 0.042 nM.

As for B2, the “EC50 GLP-1 (nM); cAMP response” value stood at 0.17 nM.

Take B3: the “EC50 GLP-1 (nM); cAMP response” value came out at 0.92 nM.

With H-H[Aib]EGSFTSELATILDAK([AEEA-AEEA-Lys-Glu-Lys-γGlu-C20 diacid])AARDFIAWLIEHKITD-OH [Compound 63], the “EC50 GLP-1 (nM); cAMP response” value stood at 0.31 nM.

As to H[Aib]EGTFTSELATILDK([γGlu-C18 diacid])KAARDFIAWLIEHKITD-OH [Compound 6], the “EC50 GLP-1 (nM); cAMP response” value was found to be 0.058 nM.

In the case of H-H[Aib]EGTFTSELATILDEQAAK([AEEA-Lys-Glu-Lys-γGlu-C20 diacid])DFIAWLIEHKITD-OH [Compound 65], the “EC50 GLP-1 (nM); cAMP response” value turned out to be 0.13 nM.
